Laboratory results from patent US20250388666A1 (BRIGHAM AND WOMEN S HOSPITAL, published 2025).
Positions count from the first letter of the chain named. Names and notes keep the numbering of the source.

T1: CEACAM1-HIS (Sino Biologics Inc.) (Homo sapiens (Human), UniProt P13688 35-428)
T1 construct: bought; not shown: His tag
T1 sequence: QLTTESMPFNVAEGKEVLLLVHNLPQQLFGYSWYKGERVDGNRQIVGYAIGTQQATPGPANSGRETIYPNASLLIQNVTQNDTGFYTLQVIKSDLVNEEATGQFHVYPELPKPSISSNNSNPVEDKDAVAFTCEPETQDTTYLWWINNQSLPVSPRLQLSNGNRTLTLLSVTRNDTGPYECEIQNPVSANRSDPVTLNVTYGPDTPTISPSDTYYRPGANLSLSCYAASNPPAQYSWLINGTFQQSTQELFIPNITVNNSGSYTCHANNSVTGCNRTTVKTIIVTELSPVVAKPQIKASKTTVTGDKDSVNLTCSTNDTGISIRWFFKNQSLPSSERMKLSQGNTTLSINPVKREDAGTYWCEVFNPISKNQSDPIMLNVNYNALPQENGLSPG

T2: CEACAM1 (Sino Biological) (human, UniProt P13688 35-428, limits assumed)
T2 construct: may be the same as CEACAM1-HIS; also called hCEACAM1; biotinylated soluble CEACAM1
T2 sequence: T1 sequence

T3: human GST-CEACAM1 (human, UniProt P13688 35-141, limits assumed)
T3 construct: printed both as GST-CEACAM1 and CEACAM1-GST; also called human CEACAM1-GST protein; hCEACAM1-GST; not shown: GST tag
T3 sequence: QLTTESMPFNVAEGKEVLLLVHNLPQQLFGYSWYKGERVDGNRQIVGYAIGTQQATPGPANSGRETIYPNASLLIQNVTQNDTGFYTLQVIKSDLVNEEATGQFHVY

B1: VH1/Vκ1 (antibody, V domains shown)
VH: EVQLLESGGGLVQPGGSLRLSCAASGFIFSSHGMSWVRQAPGKGLEWVATISSGGTYTYYPDSVKGRFTISRDNSKNTLYLQMNSLKAEDTAMYYCARHDFDYDAAWFAYWGQGTLVTVSS
VL: QIVLTQSPALLSLSPGERATMSCSANSSVSYMYWYRQKPGQAPKPWIYLTSNLASGVPARFSGSGSGTDYTLTISSLEAEDFATYYCQQWSSNPPTFGQGTKLEIK
B2: VH2/Vκ1 (antibody, V domains shown)
VH: B1 VH with K87R
VL: B1 VL
B3: VH1/Vκ2 (antibody, V domains shown)
VH: B1 VH
VL: B1 VL with Q1E, L10T, M21L, S24R, R36Q, K44R, L53R, S55T, A79P
B4: Parent VH/L6 (antibody, IgG4, V domains shown)
VH: EVQLLESGGGLVQPGGSLRLSCAASGFSFSDYYLYWVRQAPGKGLEWVATISVGGGQTSYADSVKGRFTISRDNSKNTLYLQMNSLRAEDTAMYYCTRGLYYGPAWFAYWGQGTLVTVSS
VL: DIVMTQSPDSLAVSLGERATINCKSSQSLLNSANQKNYLAWYQQKPGQPPKLLIYFASTRESGVPDRFSGSGSGTDFTLTISSLQAEDVAVYYCQSHYPFSFTFGGGTKVEIK
notes: IgG4 S241P, kappa
B5: Parent VH/L17 (antibody, IgG4, V domains shown)
VH: B4 VH
VL: B4 VL with F100Y, S101P, F102Y
notes: IgG4 S241P, kappa
B6: Parent VH/L20 (antibody, IgG4, V domains shown)
VH: B4 VH
VL: B4 VL with Y98F, F100Y, S101P, F102L
notes: IgG4 S241P, kappa
B7: Parent VH/L19 (antibody, IgG4, V domains shown)
VH: B4 VH
VL: B4 VL with Y98I, P99Y, F100P, S101N
notes: IgG4 S241P, kappa
B8: VH1/Vκ0 (antibody, IgG4, V domains shown)
VH: B4 VH with Q57N, A61P
VL: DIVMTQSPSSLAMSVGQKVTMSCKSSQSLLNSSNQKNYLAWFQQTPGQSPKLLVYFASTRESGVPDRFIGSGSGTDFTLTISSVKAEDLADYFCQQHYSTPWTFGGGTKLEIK
notes: IgG4 (S241P), kappa
B9: VH2/Vκ4 (antibody, IgG4, V domains shown)
VH: B4 VH with Q57N
VL: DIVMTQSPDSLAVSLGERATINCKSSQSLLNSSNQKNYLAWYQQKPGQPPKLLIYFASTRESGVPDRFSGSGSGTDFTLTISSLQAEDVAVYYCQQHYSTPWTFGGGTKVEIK
notes: IgG4 (S241P), kappa
B10: VH4/Vκ2 (antibody, V domains shown)
VH: B1 VH with A49S, P61A, K87R, M93V
VL: B1 VL with Q1E, L10T, M21L, S24R, R36Q, K44R, L53R, S55T, A79P
B11: VH4/Vκ1 (antibody, V domains shown)
VH: B1 VH with A49S, P61A, K87R, M93V
VL: B1 VL
B12: VH3/Vκ2 (antibody, V domains shown)
VH: B1 VH with P61A, K87R
VL: B1 VL with Q1E, L10T, M21L, S24R, R36Q, K44R, L53R, S55T, A79P
B13: VH0/Vκ1 (antibody, V domains shown)
VH: B1 VH with L5V, G10D, Q13K, R19K, S21A, A40T, G42D, G44R, S75D, A88S
VL: B1 VL
B14: VH3/Vκ1 (antibody, V domains shown)
VH: B1 VH with P61A, K87R
VL: B1 VL

These binders were tested against T1, CEACAM1-HIS (Sino Biologics Inc.) (assay: SPR multi-cycle).

Row | average relative KD to chimeric parental antibody | relative KD to chimeric parental antibody expt 1 | relative KD to chimeric parental antibody expt 2 | Binder
1 | 1.45 ratio | 1.5 ratio | 1.4 ratio | B1
2 | 1.31 ratio | 1.39 ratio | 1.22 ratio | B2
3 | 1.46 ratio | 1.66 ratio | 1.27 ratio | B3

Each binder was assayed against T2, CEACAM1 (Sino Biological) (assay: SPR single-cycle).
Outline: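 Humanized affinity-matured IgGs from crude supernatants captured on Protein A to ~100 RU, with CEACAM1 analyte injected at 25–100 nM (three-point, two-fold) in HBS-P+ without regeneration. 200 s association per injection, 300 s single dissociation; reference-channel and blank subtracted.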

Row | Kd | fold better than Parent (KD) | Binder
4 | 57 nM | 2.81 fold | B4
5 | 76 nM | 2.08 fold | B5
6 | 87 nM | 1.83 fold | B6
7 | 77 nM | 2.08 fold | B7

These binders were tested against T1, CEACAM1-HIS (Sino Biologics Inc.) (assay: SPR multi-cycle, IgG on Protein A).
Procedure: (§1) As an alternative approach to assess the binding of the antibody combinations and the control antibodies to CEACAM1, a kinetic analysis was performed on a Biacore T200 running Biacore T200 Evaluation Software V2.0.1. All experiments were run at 25° C. with HBS-P+ running buffer (pH 7.4).
For multi-cycle kinetic analysis purified antibody was immobilized at a protein concentration of 1 μg/mL in HBS-P+. At the start of each cycle, antibody was captured on Protein A to give an RU of ˜100 and the surface allowed to stabilize. Kinetic data was obtained at a flow rate of 35 μl/min to minimize any potential mass transfer effects. Multiple repeats of the blank (no CEACAM1) and a repeat of a single concentration of the analyte were programmed into the kinetic run in order to check the stability of both the surface and analyte over the kinetic cycles. For kinetic analysis, a 2-fold dilution series was selected from 100 to 1.5625 nM CEACAM1. The association phase of CEACAM1 was monitored initially for 180 seconds. In the subsequent experiment a longer association time (275 seconds) was used in order to better reach steady state. The dissociation phase was measured for 250 seconds. Regeneration of the Protein A surface was conducted using 2 injections of 10 mM glycine-HCL pH 1.5 at the end of each cycle.
The signal from the reference channel Fc1 was subtracted from that of Fc2, Fc3 and Fc4 to correct for differences in non-specific binding to a reference surface, a global Rmax parameter was used in the 1-to-1 binding model. The relative KD compared to the chimeric parental antibody was calculated by dividing the KD of the Composite Human Antibody™ variants by that of the chimeric parental antibody on the same chip.

Row | Kd | koff | kon | relative KD to chimeric parental antibody | Binder
8 | 38.1 nM | 0.00384 s⁻¹ | 101000 M⁻¹ s⁻¹ | 1.4 ratio | B1
9 | 33.3 nM | 0.0052 s⁻¹ | 156000 M⁻¹ s⁻¹ | 1.22 ratio | B2
10 | 28.3 nM | 0.00551 s⁻¹ | 195000 M⁻¹ s⁻¹ | 1.27 ratio | B3

These binders were tested against T1, CEACAM1-HIS (Sino Biologics Inc.) (assay: SPR single-cycle, IgG on Protein A).
Procedure: as §1
In order to assess the binding of all Composite Human Antibody™ variants, single cycle kinetic analysis was performed on the supernatants of all the transiently transfected HEK EBNA cells. Purified chimeric antibody and purified chimeric antibody spiked into HEK EBNA media were used as positive controls. Supernatants were diluted in HBS-P+ to a concentration of 1 μg/mL (as determined by an IgG quantitation ELISA). At the start of each cycle, antibodies were loaded onto Fc2, Fc3 and Fc4 of a Protein A chip and captured at a flow rate of 8 μL/min to give an RU of ˜100. The surface was then allowed to stabilize. Single cycle kinetic data was obtained at a flow rate of […] to minimize any potential mass transfer effects. Multiple repeats of the chimeric antibody were performed to check the stability of the surface and analyte over the kinetic cycles. The signal from the reference channel Fc1 (no antibody) was subtracted from that of Fc2, Fc3 and Fc4 to correct for differences in non-specific binding to a reference surface. A 5 point 2-fold dilution range from 3.125 to 50 nM CEACAM1 without regeneration between each concentration was used. The association phase for the 5 injections of increasing concentrations of CEACAM1 was monitored for 150 seconds and a single dissociation phase was measured for 150 seconds following the last injection of CEACAM1. Regeneration of the Protein A was conducted using 2 injections of 10 mM glycine-HCL pH 1.5 followed by a stabilization period of 500 seconds.
In the raw sensorgrams for the single cycle kinetics, the signal from each antibody blank run (no CEACAM1) was subtracted to correct for differences in surface stability.

Row | Kd | relative KD to chimeric parental antibody | Binder
11 | 76.6 nM | 1.8 ratio | B8
12 | 77.8 nM | 1.8 ratio | B9
13 | 93.4 nM | 2.2 ratio | B1
14 | 3950 nM | 91.4 ratio | B10
15 | 243 nM | 5.6 ratio | B11
16 | 180 nM | 4.2 ratio | B2
17 | 148 nM | 3.4 ratio | B3
18 | 265 nM | 6.1 ratio | B12
19 | 56.1 nM | 1.3 ratio | B13
20 | 1500 nM | 34.7 ratio | B14

Each binder was assayed against T3, human GST-CEACAM1 (assay: competition ELISA vs murine parent antibody).
Procedure: The binding of the purified chimeric antibody to human CEACAM1 was assessed in a competition ELISA assay. Nunc Immuno MaxiSorp 96 well flat bottom microtitre plates were pre-coated with 1 μg/ml human GST-CEACAM1 in 1×PBS, overnight at 4° C. The following day the plates were blocked for 1 hour at room temperature with 2% BSA/PBS before washing 2× with PBS/0.05% Tween 20 pH 7.4.
The binding of the purified antibodies to human CEACAM1 were assessed in a competition ELISA assay as described above. The ability of each variant to compete against the murine parental antibody for binding to the GST-CEACAM1 was compared to that of the chimeric antibody (VH0/Vκ0), which was included on each plate.

Row | average relative IC50 (normalized to chimeric antibody) | Binder
21 | 1 ratio | B8
22 | 7.2 ratio | B9
23 | 1.5 ratio | B1
24 | 1.7 ratio | B2
25 | 1.3 ratio | B3
26 | 2.5 ratio | B13
